Laboratory results taken from patent publication US20170044241A1 (VYBION, published 2017).
No end group written: not given here. biotin = biotin label at C-terminus

Assays:
[1] = target: T1, biotinylated Huntingtin peptide Happ(+) (RPQLPQPPPQAQPRGGGSK-biotin); test: ELISA, purified intrabody on poly-proline peptides (FIG. 1C)
T1 construct: also called biotinylated PRP; poly-proline peptide
T1 peptide: RPQLPQPPPQAQPRGGGSK-biotin
Description: (§1) ELISA was performed to determine the binding activity of isolated scFv clones against biotinylated Huntingtin peptide designated Happ(+) ([…]-biotin (SEQ ID NO: 26), and a second biotinylated Huntingtin peptide designated Happ(−) ([…]-biotin (SEQ ID NO: 28). All incubations except antigen coating were carried out at room temperature. Microtiter plates (Nuc) were coated with 100 μl of a biotinlyated Huntingtin peptide solution (2 μg/ml in 50 mM NaHCO3 buffer, pH 9.6) and incubated overnight at 4° C. The plates were washed 3 times with 200 μl of 1×TBS (50 mM Tris-Cl, 150 mM NaCl pH 8.0) and blocked with 100 μl of 2% milk in TBS for 2 hr. Plates were washed once with 200 μl of 1×TBS. In some experiments, preblocked Strepavidin coated plates (Pierce) were used to bind biotinylated peptide. Cell extracts (50 μl) or purified StrepII tagged Intrabodies were added to the antigen-coated blocked plates and incubated for 1.5 hr. Extracts of E. coli cultures from individual colonies selected by panning after overnight induction with IPTG were prepared by lysis in B-Per (Pierce) as described by the manufacturer and centrifuged at 10,000×g for 10 minutes to remove cell wall and debris. Supernatants from these extracts were used directly or diluted with TBS (1:2, 1:4) prior to use. […] The optical density (OD) was measured at 405 nm on a spectrophotometer and the level of scFv binding determined. […]

[2] = target: T2, biotinylated Huntingtin peptide Happ(-) (PGPAVAEEPLHRPG-biotin); test: as above
T2 construct: also called second biotinylated proline rich peptide; carboxy derived Huntington's peptide
T2 peptide: PGPAVAEEPLHRPG-biotin
Description: as §1

[3] = target: T1, biotinylated Huntingtin peptide Happ(+) …; test: ELISA, purified intrabody on poly-proline peptides (FIG. 1B)
Description: as §1

[4] = target: T2, biotinylated Huntingtin peptide Happ(-) …; test: as above
Description: as §1

[5] = target: T2, biotinylated Huntingtin peptide Happ(-) …; test: ELISA, purified intrabody on poly-proline peptides (FIG. 1A)
Description: as §1

[6] = target: T1, biotinylated Huntingtin peptide Happ(+) …; test: ELISA, purified scFv on biotinylated peptide
Description: as §1

[7] = target: T1, biotinylated Huntingtin peptide Happ(+) …; test: ELISA, H8 in E. coli lysate against purified H8; peptide not given
[8] = target: T2, biotinylated Huntingtin peptide Happ(-) …; test: as above

B1: E10 (scFv)
scFv: MAEVQLVVSGGGLVKPGGSMILSCAASGFTFSNYSMNWVRQAPGKGLEWVSSISSSSEYIYYADFVKGRFTISRDNAKNSLYLQMDSLRAEDTAVYYCAITGCECTWGRGTLVTVSSGGGGSGGGGSGGGGSQSVLTQPASVSGSPGQSITISCAGTSSDVGGYNYVSWYQQHPGKAPKLMIYEDSKRPSGVSNRFSGSKSGNTASLTISGLRAEDEADYYCSCIRGLKAAYFGGGTKLAVLGAAAEQKLIS
notes: Single chain intrabody; purified with a carboxy terminal StrepII tag for the ELISA; not shown: carboxy terminal StrepII tag of the purified form (pET24)
Does B1 bind [1]?
Result: binds

Does B1 bind [2]?
Result: binds

B2: A2 (scFv)
scFv: MAEVQLVVSGGGLVKPGGSMILSCAASGFTFSNYSMNWVRQAPGKGLEWVSSISSSSEYIYYADFVKGRFTISRDNAKNSLYLQMDSLRAEDTAVYYCAHWPRLWRFPLWGRGTLVTVSSGGGGSGGGGSGGGGSQSVLTQPASVSGSPGQSITISCAGTSSDVGGYNYVSWYQQHPGKAPKLMIYEDSKRPSGVSNRFSGSKSGNTASLTISGLRAEDEADYYCVLNMHWANFGGGTKLAVLGAAAEQKLIS
notes: as for B1
Does B2 bind [3]?
Result: binds

Does B2 bind [4]?
Result: binds

B3: INT41 (scFv)
scFv: MAEVQLVVSGGGLVKPGGSMILSCAASGFTFSNYSMNWVRQAPGKGLEWVSSISSSSEYIYYADFVKGRFTISRDNAKNSLYLQMDSLRAEDTAVYYCAWPGYRKAWGRGTLVTVSSGGGGSGGGGSGGGGSQSVLTQPASVSGSPGQSITISCAGTSSDVGGYNYVSWYQQHPGKAPKLMIYEDSKRPSGVSNRFSGSKSGNTASLTISGLRAEDEADYYCSYCASKGHWLFGGGTKLAVLGAAAEQKLIS
notes: Single chain intrabody (VH-linker-VL) from the T3 scFv library; Purified from E. coli with a carboxy terminal StrepII tag for the ELISA; also called INT41 intrabody; not shown: carboxy terminal StrepII tag of the purified form (pET24)
What does the source list for B3?
binding result [5]: binds; binding result [6]: binds

B4: H8 (scFv)
scFv: MAEVQLVVSGGGLVKPGGSMILSCAASGFTFSNYSMNWVRQAPGKGLEWVSSISSSSEYIYYADFVKGRFTISRDNAKNSLYLQMDSLRAEDTAVYYCAAAVCNGRPDTWGRGTLVTVSSGGGGSGGGGSGGGGSQSVLTQPASVSGSPGQSITISCAGTSSDVGGYNYVSWYQQHPGKAPKLMIYEDSKRPSGVSNRFSGSKSGNTASLTISGLRAEDEADYYCGYSLLPVLFGGGTKLAVLGAAAEQKLIS
notes: Single chain intrabody; tested purified (StrepII tag) and also in E. coli lysate form; not shown: carboxy terminal StrepII tag of the purified form (pET24)
How did the “fold signal, lysate form against purified form” value [7] turn out when B4 was run?
Its value is 3 times.

And the “fold signal, lysate form against purified form” value [8]?
The value was 3 times.
